Assays:
Assay in all cases: cell-based or functional assay
[1] = target: HIV-1 MGRM-D-008 Env (HIV-1)
[2] = target: HIV-1 MGRM-F1-004 Env (HIV-1)
[3] = target: HIV-1 92UG005 Env (HIV-1)
[4] = target: HIV-1 MGRM-Chronic-B-008 Env on pseudovirus (HIV-1)
[5] = target: HIV-1 MGRM-G-016 Env (HIV-1)
[6] = target: HIV-1 MGRM-C-004 Env on pseudovirus (HIV-1)
[7] = target: HIV-1 MGRM-F1-020 Env (HIV-1)
[8] = target: HIV-1 MGRM-D-021 Env (HIV-1)
[9] = target: HIV-1 MGRM-D-022 Env (HIV-1)
[10] = target: HIV-1 MGRM-AG-012 Env (HIV-1)
[11] = target: HIV-1 6535.3 (Acute) Env on pseudovirus (HIV-1)
[12] = target: HIV-1 MGRM-G-028 Env (HIV-1)
[13] = target: HIV-1 JRFL Env on pseudovirus (HIV-1)
[14] = target: HIV-1 MGRM-G-017 Env (HIV-1)
[15] = target: aMLV envelope (negative control pseudovirus)
[16] = target: HIV-1 98IN022 Env on pseudovirus (HIV-1)
[17] = target: HIV-1 MGRM-C-005 Env on pseudovirus (HIV-1)
[18] = target: HIV-1 MGRM-C-006 Env on pseudovirus (HIV-1)
[19] = target: HIV-1 APV_17 Env on pseudovirus (HIV-1)
[20] = target: HIV-1 MGRM-G-006 Env (HIV-1)
[21] = target: HIV-1 MGRM-D-020 Env (HIV-1)
[22] = target: HIV-1 MGRM-AE-004 Env (HIV-1)
HIV-1 NL43 Env (HIV-1) = target: HIV-1 NL43 Env (HIV-1)
[23] = target: HIV-1 MGRM-D-005 Env (HIV-1)
[24] = target: HIV-1 MGRM-AG-013 Env (HIV-1)
HIV-1 APV-6 Env (HIV-1) = target: HIV-1 APV-6 Env (HIV-1)
[25] = target: HIV-1 LAVIC_18 Env on pseudovirus (HIV-1)
[26] = target: HIV-1 93RW029 Env (HIV-1)
[27] = target: HIV-1 MGRM-A-012 Env (HIV-1)
[28] = target: HIV-1 MGRM-A-008 Env (HIV-1)
[29] = target: HIV-1 94KE105 Env (HIV-1)
[30] = target: HIV-1 94UG103 Env (HIV-1)
[31] = target: HIV-1 92RW026 Env (HIV-1)
[32] = target: HIV-1 MGRM-A-007 Env (HIV-1)
[33] = target: HIV-1 MGRM-A-005 Env (HIV-1)
[34] = target: HIV-1 92RW020 Env (HIV-1)
[35] = target: HIV-1 92RW021 Env (HIV-1)
[36] = target: HIV-1 MGRM-A-014 Env (HIV-1)
[37] = target: HIV-1 MGRM-A-013 Env (HIV-1)
[38] = target: HIV-1 92RW008 Env (HIV-1)
[39] = target: HIV-1 92UG031 Env (HIV-1)
[40] = target: HIV-1 MGRM-A-004 Env (HIV-1)
[41] = target: HIV-1 MGRM-A-010 Env (HIV-1)
[42] = target: HIV-1 92RW024 Env (HIV-1)
[43] = target: HIV-1 MGRM-A-003 Env (HIV-1)
[44] = target: HIV-1 MGRM-A-001 Env (HIV-1)
[45] = target: HIV-1 MGRM-A-006 Env (HIV-1)
[46] = target: HIV-1 MGRM-A-011 Env (HIV-1)
[47] = target: HIV-1 MGRM-A-002 Env (HIV-1)
[48] = target: HIV-1 92RW009 Env (HIV-1)
[49] = target: HIV-1 92UG037 Env (HIV-1)
[50] = target: HIV-1 93UG077 Env (HIV-1)
HIV-1 VLGCA1 Env (HIV-1) = target: HIV-1 VLGCA1 Env (HIV-1)
[51] = target: HIV-1 MGRM-A-009 Env (HIV-1)

Substance: b12 (antibody)
- IC50 (µg/ml), pseudovirus neutralization [1]: > 50 µg/mL
- IC50 (pseudovirus neutralization) [2]: > 50 µg/mL
- IC50 (µg/ml), pseudovirus neutralization [3]: > 50 µg/mL
- neutralization IC50 [3]: > 50 µg/mL
- neutralization IC90 [3]: > 50 µg/mL
- IC50 [4]: 2.82 µg/mL
- IC50 (µg/ml), pseudovirus neutralization [5]: > 50 µg/mL
- IC50 [6]: 5.46 µg/mL
- IC50 (pseudovirus neutralization) [7]: > 50 µg/mL
- IC50 (µg/ml), pseudovirus neutralization [8]: 5.23 µg/mL
- IC50 (µg/ml), pseudovirus neutralization [9]: 17.6 µg/mL
- IC50 (µg/ml), pseudovirus neutralization [10]: 10.4 µg/mL
- IC50 [11]: 1.93 µg/mL
- IC50 (µg/ml), pseudovirus neutralization [12]: > 50 µg/mL
- IC50 [13]: 0.02 µg/mL
- IC50 (µg/ml), pseudovirus neutralization [14]: > 50 µg/mL
- IC50 (pseudovirus neutralization) [15]: > 50 µg/mL
- IC50 [16]: 0.42 µg/mL
- IC50 [17]: 2.66 µg/mL
- IC50 [18]: > 50 µg/mL
- IC50 [19]: > 50 µg/mL
- IC50 (µg/ml), pseudovirus neutralization [20]: > 50 µg/mL
- IC50 (µg/ml), pseudovirus neutralization [21]: > 50 µg/mL
- IC50 (µg/ml), pseudovirus neutralization [22]: > 50 µg/mL
- neutralization IC50 (HIV-1 NL43 Env (HIV-1)): 0.06 µg/mL
- neutralization IC90 (HIV-1 NL43 Env (HIV-1)): 0.28 µg/mL
- IC50 (µg/ml), pseudovirus neutralization [23]: > 50 µg/mL
- IC50 (µg/ml), pseudovirus neutralization [24]: > 50 µg/mL
- neutralization IC50 (HIV-1 APV-6 Env (HIV-1)): > 25 µg/mL
- neutralization IC90 (HIV-1 APV-6 Env (HIV-1)): > 50 µg/mL
- IC50 [25]: > 50 µg/mL
- neutralization IC50 [26]: > 50 µg/mL
- neutralization IC50 [27]: > 50 µg/mL
- neutralization IC50 [28]: > 50 µg/mL
- neutralization IC50 [29]: > 50 µg/mL
- neutralization IC50 [30]: 6.92 µg/mL
- neutralization IC50 [31]: > 50 µg/mL
- neutralization IC50 [32]: > 50 µg/mL
- neutralization IC50 [33]: 3.64 µg/mL
- neutralization IC50 [34]: > 50 µg/mL
- neutralization IC50 [35]: > 50 µg/mL
- neutralization IC50 [36]: > 50 µg/mL
- neutralization IC50 [37]: 7.04 µg/mL
- neutralization IC50 [38]: 9.46 µg/mL
- neutralization IC50 [39]: > 50 µg/mL
- neutralization IC50 [40]: > 50 µg/mL
- neutralization IC50 [41]: > 50 µg/mL
- neutralization IC50 [42]: > 50 µg/mL
- neutralization IC50 [43]: > 50 µg/mL
- neutralization IC50 [44]: > 50 µg/mL
- neutralization IC50 [45]: 13.6 µg/mL
- neutralization IC50 [46]: 4.01 µg/mL
- neutralization IC50 [47]: > 50 µg/mL
- neutralization IC50 [48]: > 50 µg/mL
- neutralization IC50 [49]: > 50 µg/mL
- neutralization IC50 [50]: 47 µg/mL
- neutralization IC50 (HIV-1 VLGCA1 Env (HIV-1)): > 50 µg/mL
- neutralization IC50 [51]: 4.34 µg/mL

— patent US20160264649A1
